Assay [1] addresses Soluble FGFR2-alkaline phosphatase fusion protein (FR2-AP) (human) (UniProt P05187). As to the kind of experiment: FGF on Syn4-Fc, FGFR-AP; alkaline phosphatase activity and cross-linking of the receptors to radio-labeled bFGF.
A further assay addresses Recombinant human FGF2 (human, UniProt P09038, 125I label in the FIG. 1 assay and in the FGFR2-AP direct binding assay). As to the kind of experiment: immunoprecipitation with anti-P710, incubation with 50 ng FGF2, FB-8 immunoblot.

Molecule “Recombinant human FGF2 (from UniProt P09038) (ligand)” showed a fold less than with FGFR1 in assay [1] of 2 fold less.

B1: Mouse syndecan-4 (full length) overexpressed in CHO-KI cells (other)
chain: ESIRETEVIDPQDLLEGRYFSGALPDDEDAGGSDDFELSGSGDLDDTEEPRPFPEVIEPLVPLDNHIPENAQPGIRVPSEPKELEENEVIPKRAPSDVGDDMSNKVSMSSTVQGSNIFERTEVLAALIVGGVVGILFAVFLILLLVYRMKKKDEGSYDLGKKPIYKKAPTNEFYA
modifications: heparan sulfate chains
In the case of B1, in the assay with Recombinant human FGF2, the “fold more FGF2 bound than syndecan-4 from the CHO-KI parental cells” value was around 3 fold.

The values are drawn from patent US20030100492A1, “Proteoglycans and pharmaceutical compositions comprising them” (published 2003).
